Changes are numbered by the printed parent chain. Names and notes keep the numbering of the source. Values joined by “and” are separate entries in the source; they are usually repeats but may differ in a detail not shown here. Identical values can stand only once. Ends that are not written are not given here. * marks the point of attachment. Biotin = O=C1N[C@H]2[C@H](CS[C@H]2CCCCC(=O)*)N1
Key:
[1] = target: FKBP-SmHT-HiBiT; test: cell-based or functional assay
[2] = target: T1, Biotin-HaloTag[3-19] (I2R + G5R)-4xGly/Ser-VS-HiBiT (N-terminal biotin); test: BLI; biotin-peptide on streptavidin probe; PBST, 25 C
T1 construct: Synthetic peptide; also called HaloTag[3-19](I2R + G5R)-4xGS-VSHiBiT
T1 peptide: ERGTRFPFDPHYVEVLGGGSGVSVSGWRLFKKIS

[3] = target: T2, Biotin-HaloTag[3-19] (D9R + L16R)-4xGly/Ser-VS-HiBiT (N-terminal biotin); test: as above
T2 construct: Synthetic peptide; also called HaloTag[3-19](D9R + L16R)-4xGS-VSHiBiT
T2 peptide: T1 peptide with R2I, R5G, D9R, L16R

[4] = target: T3, Biotin-HaloTag[3-19] (G3K + E14K)-4xGly/Ser-VS-HiBiT (N-terminal biotin); test: as above
T3 construct: Synthetic peptide; also called HaloTag[3-19](G3K + E14K)-4xGS-VSHiBiT
T3 peptide: T1 peptide with R2I, G3K, R5G, E14K

[5] = target: T4, Biotin-HaloTag[3-19] (I2R)-4xGly/Ser-VS-HiBiT (N-terminal biotin); test: as above
T4 construct: Synthetic peptide; also called HaloTag[3-19](12R)-4×Gly/Ser-VS-HiBiT; DualTag peptide
T4 peptide: T1 peptide with R5G

[6] = target: T5, Biotin-HaloTag[3-19] (G5R)-4xGly/Ser-VS-HiBiT (N-terminal biotin); test: as above
T5 construct: Synthetic peptide
T5 peptide: T1 peptide with R2I

[7] = target: T6, Biotin-HaloTag[3-19] (I2R + G3K)-4xGly/Ser-VS-HiBiT (N-terminal biotin); test: as above
T6 construct: Synthetic peptide; also called HaloTag[3-19](I2R + G3K)-4xGS-VSHiBIT
T6 peptide: T1 peptide with G3K, R5G

[8] = target: T7, Biotin-HaloTag[3-19] (E14K)-4xGly/Ser-VS-HiBIT (N-terminal biotin); test: as above
T7 construct: Synthetic peptide
T7 peptide: T1 peptide with R2I, R5G, E14K

[9] = target: T8, Biotin-HaloTag[3-19] (I2R + G17R)-4xGly/Ser-VS-HiBiT (N-terminal biotin); test: as above
T8 construct: Synthetic peptide; also called HaloTag[3-19](I2R + G17R)-4xGS-VSHiBiT
T8 peptide: T1 peptide with R5G, G17R

[10] = target: T9, Biotin-HaloTag[3-19] (D9R)-4xGly/Ser-VS-HiBiT (N-terminal biotin); test: as above
T9 construct: Synthetic peptide
T9 peptide: T1 peptide with R2I, R5G, D9R

[11] = target: T10, Biotin-HaloTag[3-19] (G3K + L16R)-4xGly/Ser-VS-HiBiT (N-terminal biotin); test: as above
T10 construct: Synthetic peptide; also called HaloTag[3-19](G3K + L16R)-4xGS-VSHiBiT
T10 peptide: T1 peptide with R2I, G3K, R5G, L16R

[12] = target: T11, Biotin-HaloTag[3-19] (G3K)-4xGly/Ser-VS-HiBIT (N-terminal biotin); test: as above
T11 construct: Synthetic peptide
T11 peptide: T1 peptide with R2I, G3K, R5G

[13] = target: T12, Biotin-HaloTag[3-19] (L16R)-4xGly/Ser-VS-HiBiT (N-terminal biotin); test: as above
T12 construct: Synthetic peptide
T12 peptide: T1 peptide with R2I, R5G, L16R

[14] = target: T13, Biotin-HaloTag[3-19] (D9R + E14K)-4xGly/Ser-VS-HiBiT (N-terminal biotin); test: as above
T13 construct: Synthetic peptide; also called HaloTag[3-19](D9R + E14K)-4xGS-VSHiBiT
T13 peptide: T1 peptide with R2I, R5G, D9R, E14K

[15] = target: T14, Biotin-HaloTag[3-19] (I2R + D9R)-4xGly/Ser-VS-HiBiT (N-terminal biotin); test: as above
T14 construct: Synthetic peptide; also called HaloTag[3-19](I2R + D9R)-4xGS-VSHiBiT
T14 peptide: T1 peptide with R5G, D9R

[16] = target: T15, Biotin-VS-HiBiT; test: as above
T15 construct: Synthetic peptide
T15 peptide: Biotin-VSVSGWRLFKKIS

[17] = target: T16, VS-HiBiT-HaloTag[3-19] (I2R) (not fully specified; N-terminal biotin (on Val1) per the head of Table 1 ('All peptides are biotinylated at the N-terminus'), though Table 2 does not print Biotin for this entry; not carried by the …); test: as above
T16 construct: Synthetic peptide

[18] = target: T17, Biotin-HaloTag[3-19] (I2R)-4xGly/Ser-VS-HiBiT (K8R + K9R) (N-terminal biotin (on Glu1), used for immobilisation on streptavidin probes; not carried by the letters); test: as above
T17 construct: Synthetic peptide
T17 peptide: T1 peptide with R5G, K31R, K32R

[19] = target: T18, Biotin-VS-HiBiT-5xGly/Ser-HaloTag[3-19] (I2R) (N-terminal biotin (on Val1), used for immobilisation on streptavidin probes; not carried by the letters); test: as above
T18 construct: Synthetic peptide
T18 peptide: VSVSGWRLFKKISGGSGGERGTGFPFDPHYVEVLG

[20] = target: T19, Biotin-HaloTag[3-19] (I2R)-4xGly/Ser-HiBiT (N-terminal biotin (on Glu1), used for immobilisation on streptavidin probes; not carried by the letters); test: as above
T19 construct: Synthetic peptide
T19 peptide: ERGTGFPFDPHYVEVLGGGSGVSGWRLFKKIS

[21] = target: T20, Biotin-HaloTag[3-19] (I2R)-VS-HiBiT (N-terminal biotin (on Glu1), used for immobilisation on streptavidin probes; not carried by the letters); test: as above
T20 construct: Synthetic peptide
T20 peptide: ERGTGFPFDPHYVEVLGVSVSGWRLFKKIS

B1: HaloTag[22-297](M2F)-12xGly/Ser-LgBiT (other)
chain: MFHYVDVGPRDGTPVLFLHGNPTSSYVWRNIIPHVAPTHRCIAPDLIGMGKSDKPDLGYFFDDHVRFMDAFIEALGLEEVVLVIHDWGSALGFHWAKRNPERVKGIAFMEFIRPIPTWDEWPEFARETFQAFRTTDVGRKLIIDQNVFIEGTLPMGVVRPLTEVEMDHYREPFLNPVDREPLWRFPNELPIAGEPANIVALVEEYMDWLHQSPVPKLLFWGTPGVLIPPAEAARLAKSLPNCKAVDIGPGLNLLQEDNPDLIGSEIARWLSTLEISGGSGGSGGGGSGGMVFTLEDFVGDWEQTAAYNLDQVLEQGGVSSLLQNLAVSVTPIQRIVRSGENALKIDIHVIIPYEGLSADQMAQIEEVFKVVYPVDDHHFKVILPYGTLVIDGVTPNMLNYFGRPYEGIAVFDGKKITVTGTLWNGNKIIDERLITPDGSMLFRVTINS
luminescence (FIG. 9) [1]: ~100 fold

B2: HaloTag[22-297](Q145H+P154R)-LgBiT (other)
chain: MMHYVDVGPRDGTPVLFLHGNPTSSYVWRNIIPHVAPTHRCIAPDLIGMGKSDKPDLGYFFDDHVRFMDAFIEALGLEEVVLVIHDWGSALGFHWAKRNPERVKGIAFMEFIRPIPTWDEWPEFARETFQAFRTTDVGRKLIIDHNVFIEGTLRMGVVRPLTEVEMDHYREPFLNPVDREPLWRFPNELPIAGEPANIVALVEEYMDWLHQSPVPKLLFWGTPGVLIPPAEAARLAKSLPNCKAVDIGPGLNLLQEDNPDLIGSEIARWLSTLEISGGSGGSGGGGSGGMVFTLEDFVGDWEQTAAYNLDQVLEQGGVSSLLQNLAVSVTPIQRIVRSGENALKIDIHVIIPYEGLSADQMAQIEEVFKVVYPVDDHHFKVILPYGTLVIDGVTPNMLNYFGRPYEGIAVFDGKKITVTGTLWNGNKIIDERLITPDGSMLFRVTINSGSGHHHHHH
luminescence (FIG. 9) [1]: ~100 fold

B3: HaloTag[22-297](M2F + K140E)-12xGly/Ser-LgBiT-3xGly/Ser-6xHis (other)
chain: B2 chain with M2F, K140E, H145Q, R154P
notes: Purified tandem polypeptide reporter variant
kon [2]: 95100 M⁻¹ s⁻¹ | kon [3]: 134000 M⁻¹ s⁻¹ | kon [4]: 128000 M⁻¹ s⁻¹ | Kd [5]: 0.684 nM and 0.466 nM | koff [5]: 4.56e-05 s⁻¹ and 3.26e-05 s⁻¹ | kon [5]: 66700 M⁻¹ s⁻¹ and 70000 M⁻¹ s⁻¹ | kon [6]: 85300 M⁻¹ s⁻¹ | kon [7]: 104000 M⁻¹ s⁻¹ | kon [8]: 108000 M⁻¹ s⁻¹ | kon [9]: 93300 M⁻¹ s⁻¹ | Kd [10]: 0.126 nM | koff [10]: 1.09e-05 s⁻¹ | kon [10]: 86600 M⁻¹ s⁻¹ | kon [11]: 97100 M⁻¹ s⁻¹ | Kd [12]: 0.264 nM | koff [12]: 1.93e-05 s⁻¹ | kon [12]: 73000 M⁻¹ s⁻¹ | kon [13]: 77900 M⁻¹ s⁻¹ | Kd [14]: 0.111 nM | koff [14]: 1.69e-05 s⁻¹ | kon [14]: 152000 M⁻¹ s⁻¹ | kon [15]: 128000 M⁻¹ s⁻¹

B4: HaloTag[22-297](M2F + F148M + V177E)-12xGly/Ser-LgBiT-3xGly/Ser-6xHis (other)
chain: B2 chain with M2F, H145Q, F148M, R154P, V177E
notes: as for B3
Kd [16]: 2.4 nM | koff [16]: 0.000628 s⁻¹ | kon [16]: 261000 M⁻¹ s⁻¹ | Kd [5]: 0.509 nM | koff [5]: 2.75e-05 s⁻¹ | kon [5]: 54000 M⁻¹ s⁻¹ | Kd [6]: 0.485 nM | koff [6]: 2.23e-05 s⁻¹ | kon [6]: 46000 M⁻¹ s⁻¹ | Kd [12]: 0.102 nM | koff [12]: 5.03e-06 s⁻¹ | kon [12]: 49500 M⁻¹ s⁻¹

B5: HaloTag[22-297](M2F + D53G + K140E)-12xGly/Ser-LgBiT-3xGly/Ser-6xHis (other)
chain: B2 chain with M2F, D53G, K140E, H145Q, R154P
Kd [17]: 0.613 nM | koff [17]: 6.77e-05 s⁻¹ | kon [17]: 110000 M⁻¹ s⁻¹ | kon [18]: 71400 M⁻¹ s⁻¹ | Kd [5]: 0.576 nM | koff [5]: 4.82e-05 s⁻¹ | kon [5]: 83800 M⁻¹ s⁻¹ | Kd [19]: 0.782 nM | koff [19]: 6.94e-05 s⁻¹ | kon [19]: 88700 M⁻¹ s⁻¹ | Kd [20]: 0.323 nM | koff [20]: 1.98e-05 s⁻¹ | kon [20]: 61300 M⁻¹ s⁻¹ | Kd [21]: 0.713 nM | koff [21]: 6.05e-05 s⁻¹ | kon [21]: 84800 M⁻¹ s⁻¹

B6: HaloTag[22-297](M2F + D53G + V177E)-12xGly/Ser-LgBiT-3xGly/Ser-6xHis (other)
chain: B2 chain with M2F, D53G, H145Q, R154P, V177E
notes: as for B3
Kd [5]: 0.669 nM | koff [5]: 4.09e-05 s⁻¹ | kon [5]: 61300 M⁻¹ s⁻¹

B7: LgBiT-6xHis (other)
chain: MVFTLEDFVGDWEQTAAYNLDQVLEQGGVSSLLQNLAVSVTPIQRIVRSGENALKIDIHVIIPYEGLSADQMAQIEEVFKVVYPVDDHHFKVILPYGTLVIDGVTPNMLNYFGRPYEGIAVFDGKKITVTGTLWNGNKIIDERLITPDGSMLFRVTINSHHHHHH
notes: also called LgBiT-6×His; LgBiT alone
Kd [16]: 5.06 nM | koff [16]: 0.000931 s⁻¹ | kon [16]: 184000 M⁻¹ s⁻¹ | Kd [2]: 0.11 nM | koff [2]: 5.86e-06 s⁻¹ | kon [2]: 53200 M⁻¹ s⁻¹ | kon [3]: 64800 M⁻¹ s⁻¹ | Kd [7]: 0.323 nM | koff [7]: 2.4e-05 s⁻¹ | kon [7]: 74500 M⁻¹ s⁻¹ | kon [14]: 83000 M⁻¹ s⁻¹

— US20240368565A1 (PROMEGA, published 2024)
